Results as given in the Human Domainome abundance scans (Beltran et al. 2025).

B1: Ankyrin repeat and SAM domain-containing protein 6, residues 774 to 836; numbered along this chain, Q68DC2 (parent)
chain: DEDELTGILKKLSLEKYQPIFEEQEVDMEAFLTLTDGDLKELGIKTDGSRQQILAAISELNAG

Variants of: B1
Test: abundance fitness (aPCA) (normalised: wild type 0, dead -1); higher = more abundant; growth selection in yeast, the domain comes from the species named
Conditions: Homo sapiens

Abundance fitness: each site, then its substitutions
L12: E -0.949, F 0.005, G -0.927, H 0.171, I 0.254, K -0.256, M 0.038, N -0.402, P -1.16, Q -0.567, R -0.538, S -0.531, T -0.35, V -0.369, W -0.061, Y 0.09
S13: A -0.067, D 0.131, E -0.002, F -0.62, H 0.075, I -0.202, L -0.497, N 0.039, P -0.736, Q 0.042, R -0.04, T -0.127, V -0.567, W -0.472, Y -0.623
L14: A -0.94, C -0.64, E -0.777, F -0.583, G -1.05, H -1.01, I -0.332, K -0.918, M -0.303, N -1.42, P -0.845, Q -1.17, T -1.37, V -0.655, W -0.946, Y -0.97
E15: A -0.271, C -0.343, D -0.158, F -0.505, G -0.433, I -0.323, K -0.869, L -0.185, M -0.123, N -0.492, P -0.687, Q -0.037, R -0.53, S -0.143, T -0.21, V -0.36, W -0.657
K16: A 0.074, C -0.083, E 0.175, F -0.339, G -0.135, H 0.011, I -0.408, M -0.084, P 0.001, Q -0.253, R -0.203, S -0.103, V -0.113, Y -0.251
Y17: A -0.561, C -0.255, D -0.322, E -0.026, F -0.045, G -0.399, H -0.505, K -0.426, L -0.127, M 0.031, N -0.344, P -0.756, Q -0.339, S -0.49, T -0.509, V -0.355, W -0.043
Q18: A 0.07, C -0.146, D -0.344, E -0.119, F -0.407, G -0.078, H -0.221, I -0.051, L -0.092, M -0.035, N -0.538, P -0.786, R -0.025, S -0.075, T -0.076, V -0.12, W -0.31, Y -0.539
P19: A -0.073, C -0.247, D -0.023, F -0.285, G -0.116, H 0.005, I -0.509, K -0.416, L -0.456, M -0.035, N -0.059, Q -0.21, R -0.116, S -0.094, T -0.138, V -0.346, W -0.208, Y -0.234
I20: A -0.111, C 0.015, D -0.091, E -0.299, F -0.352, G -0.494, H -0.213, K -0.104, L -0.124, M 0.09, N -0.015, P -0.617, Q -0.083, R -0.046, S -0.301, T -0.096, V 0.101, W -0.252, Y -0.273
F21: A -0.348, C -0.697, E -0.36, G -0.579, H -0.629, I -0.615, K -0.556, L -0.222, M -0.372, N -0.553, P -0.65, R -0.609, S -0.615, T -0.589, V -0.595, W -0.847
E22: A -0.107, C -0.299, D -0.149, F -0.402, G -0.388, H -0.394, I -0.854, K -0.103, L -0.179, M -0.091, Q -0.104, S -0.059, T -0.093, V -0.256, W -0.743, Y -0.231
E23: A -0.062, C -0.409, D -0.155, G -0.229, H -0.429, I -0.317, K -0.085, L -0.419, M -0.318, N -0.165, P -0.95, Q -0.17, R -0.06, S -0.168, T -0.231, V -0.593, Y -0.543
Q24: A -0.04, D -0.369, F -0.25, G -0.128, H -0.261, I -0.47, K -0.042, M -0.165, P -0.925, R -0.096, S -0.033, T -0.257, V -0.442, W -0.458, Y -0.112
E25: A 0.023, C -0.073, D -0.159, F -0.166, G -0.023, H -0.048, I -0.281, K 0.301, L -0.293, M -0.038, N 0.006, P -0.653, Q -0.204, R -0.147, S -0.08, T -0.412, V -0.21, W -0.449, Y -0.262
V26: A -0.542, C -0.353, D -0.821, E -0.532, F -0.177, G -0.539, H -0.74, I -0.056, K -0.425, L -0.145, M -0.024, N -0.664, Q -0.589, R -0.588, S -0.649, T -0.479, W -0.405, Y -0.327
D27: A -0.47, C -0.376, E -0.294, F -1.25, H -0.282, I -0.827, K -0.212, L -0.895, P -0.483, Q -0.44, R -0.215, S -0.075, T 0.001, V -0.988, W -0.857, Y -0.729
M28: A -0.055, C -0.319, D -0.466, E -0.437, F -0.132, G -0.213, H -0.218, I -0.202, K -0.025, L -0.155, N -0.315, P -0.168, Q -0.29, R -0.159, S -0.094, T 0.007, V -0.219, Y -0.106
E29: A -0.025, C -0.338, D -0.107, F -0.648, G -0.162, H -0.356, K 0.099, L -0.51, M -0.318, N -0.32, P -0.105, Q -0.097, S -0.228, T -0.123, V -0.334, Y -0.417
A30: C -0.02, D -0.273, E -0.073, F -0.246, H 0.037, I -0.164, K 0.001, L -0.089, M -0.075, N -0.049, P -0.784, R 0.096, S -0.015, T -0.125, V -0.093, W -0.464, Y -0.218
F31: A -0.37, C -0.797, D -0.51, E -0.384, G -0.443, H -0.586, I -0.343, K -0.362, L -0.305, M -0.329, N -0.441, P -0.469, R -0.426, S -0.513, T -0.638, V -0.342
